The labels stand for the following.
B1: IL1RL2-24 (VHH)
VHH: EVQLVESGGGLVQPGGSLRLSCAASGRTFSTYDMGWFRQAPGKERELVASIVWIGGRTYYADSVKGRFTISADNSKNTAYLQMNSLKPEDTAVYYCADVNGDWGQGTLVTVSS
notes: VHH-Fc based on IgG2 Fc
B2: IL1RL2-30 (VHH)
VHH: EVQLVESGGGLVQPGGSLRLSCAASGGTLRGFDIGWFRQAPGKEREFVAAVTWSGGSTNYADSVKGRFTISADNSKNTAYLQMNSLKPEDTAVYYCADVNGDWGQGTLVTVSS
notes: VHH-Fc based on IgG2 Fc
B3: IL1RL2-11 (VHH)
VHH: EVQLVESGGGLVQPGGSLRLSCAASGRTFSRYAMGWFRQAPGKEREFVAAINWSGARTYYADSVKGRFTISADNSKNTAYLQMNSLKPEDTAVYYCAVSQPLNYYTYYDARRYDWGQGTLVTVSS
notes: VHH-Fc based on IgG2 Fc
B4: IL1RL2-23 (VHH)
VHH: B3 VHH with R27P, R31T, N52S, R57N
notes: VHH-Fc based on IgG2 Fc
B5: IL1RL2-29 (VHH)
VHH: B3 VHH with R27G, R31A, A33T, N52S, A56G, R57S
notes: VHH-Fc based on IgG2 Fc
B6: IL1RL2-2 (VHH)
VHH: EVQLVESGGGLVQPGGSLRLSCAASGFTRSYYTMGWFRQAPGKERELVASITRGGGTTYADSVKGRFTISADNSKNTAYLQMNSLKPEDTAVYYCADVNGDWGQGTLVTVSS
notes: VHH-Fc based on IgG2 Fc
B7: IL1RL2-31 (VHH)
VHH: B6 VHH with F27R, R29F, S30D, Y31S, T33D, R53F, G56V, T58N
notes: VHH-Fc based on IgG2 Fc
B8: TSLP-21 (VHH)
VHH: EVQLVESGGGLVQPGGSLRLSCAASGNIFSRYIMGWFRQAPGKERELVSAIFSDGSTLYADSVKGRFTISADNSKNTAYLQMNSLKPEDTAVYYCAKGGYSSGWFDYWGQGTLVTVSS
notes: VHH-Fc (IgG2 Fc); not shown: IgG2 Fc of the VHH-Fc format
B9: TSLP-120 (antibody, V domains shown)
VH: QVQLVQSGAEVKKPGSSVKVSCKASGGTFSTYAISWVRQAPGQGLEWMGGIISINYAQKFQGRVTITADESTSTAYMELSSLRSEDTAVYYCAWGAKYALDSWGQGTLVTVSS
VL: DIQMTQSPSSLSASVGDRVTITCRASQTIGTYLNWYQQKPGKAPKLLIYSASSLQSGVPSRFSGSGSGTDFTLTISSLQPEDFATYYCQQTDGNPPTFGQGTKVEIK
B10: TSLP-7 (VHH)
VHH: EVQLVESGGGLVQPGGSLRLSCAASGLTFGTHVMGWFRQAPGKERELVTAINPAALTTYYADSVKGRFTISADNSKNTAYLQMNSLKPEDTAVYYCARDFWSAGDSWGQGTLVTVSS
notes: as for B8
B11: TSLP-24 (VHH)
VHH: EVQLVESGGGLVQPGGSLRLSCAASGGIFSINDIGWFRQAPGKEREFVAALSWIIGSGVYTYYADSVKGRFTISADNSKNTAYLQMNSLKPEDTAVYYCANEYGWGQGTLVTVSS
notes: as for B8
B12: TSLP-18 (VHH)
VHH: EVQLVESGGGLVQPGGSLRLSCAASGNIFTRNIMCWFRQAPGKEREGVSCISTGDGSTYYADSVKGRFTISADNSKNTAYLQMNSLKPEDTAVYYCAADSETSGNWVWGQGTLVTVSS
notes: as for B8
B13: TSLP-41 (VHH)
VHH: EVQLVESGGGLVQPGGSLRLSCAASGRTFSAHSVYTMGWFRQAPGKEREWVSAIFSDGDTYYADSVKGRFTISADNSKNTAYLQMNSLKPEDTAVYYCAIDEGMDYDGNFYDWGQGTLVTVSS
notes: as for B8
B14: TSLP-6 (VHH)
VHH: EVQLVESGGGLVQPGGSLRLSCAASGMTFSSYVMGWFRQAPGKEREFVGEIILSKGFTYYADSVKGRFTISADNSKNTAYLQMNSLKPEDTAVYYCASGPGYYDSSAYYLYAFDIWGQGTLVTVSS
notes: as for B8
B15: TSLP-20 (VHH)
VHH: EVQLVESGGGLVQPGGSLRLSCAASGFKLGYYAMGWFRQAPGKEREGVATIAGGTTYYADSVKGRFTISADNSKNTAYLQMNSLKPEDTAVYYCAAIGWRWGQGTLVTVSS
notes: as for B8
B16: TSLP-11 (VHH)
VHH: EVQLVESGGGLVQPGGSLRLSCAASGFTFDDSDMGWFRQAPGKEREFVGAISWSGDSTYYKYYADSVKGRFTISADNSKNTAYLQMNSLKPEDTAVYYCANQYGWGQGTLVTVSS
notes: as for B8
B17: TSLP-31 (VHH)
VHH: EVQLVESGGGLVQPGGSLRLSCAASGNIFANNIMGWFRQAPGKERELVSAIFSDGSTYYADSVKGRFTISADNSKNTAYLQMNSLKPEDTAVYYCARDDIVGAWSLDCWGQGPLMTVSS
notes: as for B8
B18: TSLP-34 (VHH)
VHH: B17 VHH with N27H, D99A, W104A, C108Y, P113T, M115V
notes: as for B8
B19: TSLP-28 (VHH)
VHH: EVQLVESGGGLVQPGGSLRLSCAASGFTFDDYEMGWFRQAPGKEREFVGSIGCDGSTLYADSVKGRFTISADNSKNTAYLQMNSLKPEDTAVYYCTTDCDDHCGWGQGTLVTVSS
notes: as for B8
B20: TSLP-15 (VHH)
VHH: EVQLVESGGGLVQPGGSLRLSCAASGFILDDYAMGWFRQAPGKEREFVATIAGGYTYYADSVKGRFTISADNSKNTAYLQMNSLKPEDTAVYYCPVFDGYTRIHWGQGTLVTVSS
notes: as for B8
B21: TSLP-33 (VHH)
VHH: EVQLVESGGGLVQPGGSLRLSCAASGFSLDYYGMGWFRQAPGKEREFVAAIHWNGDSTLYADSVKGRFTIIADNSKNTAYLQMNSLKPEDTAVYYCARGFSGWFPFDYWGQGTLVTVSS
notes: as for B8
B22: TSLP-27 (VHH)
VHH: EVQLVESGGGLVQPGGSLRLSCAASGSTFSDRAMGWFRQAPGKERELVSAIFSDGSTLYADSVKGRFTISADNSKNTAYLQMNSLKPEDTAVYYCASDVGMDVWGQGTLVTVSS
notes: as for B8

The values below come from patent US20230265179A1 (TWIST BIOSCIENCE, published 2023).

Substitutions are numbered along the chain they refer to.

The target of the first assay is T1, IL1RL2 over-expressed on Expi293 cells (UniProt Q9HB29 20-575, limits assumed).
T1 construct: whole, on cells; Target of the flow cytometry assay; MFI ratio is over-expressing cells over parent cells
T1 sequence (looked up): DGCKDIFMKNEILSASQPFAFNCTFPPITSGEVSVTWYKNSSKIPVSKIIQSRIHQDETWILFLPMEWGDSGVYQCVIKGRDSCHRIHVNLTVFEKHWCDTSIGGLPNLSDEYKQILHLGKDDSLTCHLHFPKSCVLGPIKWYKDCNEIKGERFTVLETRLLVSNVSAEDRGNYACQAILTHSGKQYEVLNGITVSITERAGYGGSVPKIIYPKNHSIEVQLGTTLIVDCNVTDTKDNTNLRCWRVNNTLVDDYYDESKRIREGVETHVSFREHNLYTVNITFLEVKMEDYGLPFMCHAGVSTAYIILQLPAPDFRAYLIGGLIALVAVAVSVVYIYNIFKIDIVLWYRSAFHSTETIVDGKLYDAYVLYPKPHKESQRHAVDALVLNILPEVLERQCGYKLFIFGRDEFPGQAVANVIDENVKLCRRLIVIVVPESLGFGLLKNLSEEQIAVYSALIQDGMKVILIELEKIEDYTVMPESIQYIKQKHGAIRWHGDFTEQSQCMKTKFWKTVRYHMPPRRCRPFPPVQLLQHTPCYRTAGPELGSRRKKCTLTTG
Kind of assay: flow cytometry, over-expressing Expi293 vs parent cells, 100 nM antibody.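 Also: ratio is mean fluorescence intensity on over-expressing Expi293 cells divided by that measured on parental Expi293 cells.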
Method: (§1) All incubations and washes were in buffer containing PBS+1% BSA. MFI Ratio is defined by the mean fluorescence intensity (MFI) of the cytokine over-expressing Expi293 cell over the Expi293 parent cell. […] EC50 was calculated in GraphPad Prism.
Consider B1, for which the “100 nM FACS (MFI Ratio)” value was 18.1.

Turning to B2, the “100 nM FACS (MFI Ratio)” value worked out at 10.2.

Take B3: the “100 nM FACS (MFI Ratio)” value stood at 22.4.

For B4, the “100 nM FACS (MFI Ratio)” value was found to be 13.9.

Regarding B5, the “100 nM FACS (MFI Ratio)” value turned out to be 5.46.

Consider B6, for which the “100 nM FACS (MFI Ratio)” value worked out at 9.22.

For the molecule B7, the “100 nM FACS (MFI Ratio)” value is 7.16.

A further assay addresses T2, TSLP (UniProt Q969D9 29-159).
T2 construct: Soluble analyte of the SPR assay
The assay is described as follows: SPR, Carterra LSA, antibody amine-coupled, 1:1 model.
Method: (§2) SPR experiments were performed on a Carterra LSA SPR biosensor equipped with a HC30M chip at 25° C. in HBS-TE. Antibodies were diluted to 10 μg/mL and amine-coupled to the sensor chip by EDC/NHS activation, followed by ethanolamine HCl quenching. Increasing concentrations of analyte were flowed over the sensor chip in HBS-TE with 0.5 mg/mL BSA with 5-minute association and 15-minute dissociation. Following each injection cycle the surface was regenerated with 2× 30-second injections of IgG elution buffer (Thermo). Data were analyzed in Carterra's Kinetics Tool software with 1:1 binding model.
As to B8, the affinity, expressed as Kd, was 10.6 nM; the off-rate (koff) came out at 0.00113 s⁻¹; the on-rate (kon) came out at 106000 M⁻¹ s⁻¹.

The molecule B9 showed a Kd of 0.223 nM, a koff of 0.000181 s⁻¹ and a kon of 809000 M⁻¹ s⁻¹.

In turn, B10 returned a dissociation constant Kd of 5.12 nM, an off-rate constant (koff) of 0.000351 s⁻¹ and a kon of 68500 M⁻¹ s⁻¹.

Take B11: binding was put at a Kd of 10.2 nM, the koff worked out at 0.000445 s⁻¹ and the kon was found to be 43600 M⁻¹ s⁻¹.

B12 showed a dissociation constant (Kd) of 22.3 nM, an off-rate constant (koff) of 0.00178 s⁻¹ and an on-rate constant (kon) of 79700 M⁻¹ s⁻¹.

B13 showed a Kd of 10.8 nM, a koff of 0.00177 s⁻¹ and an on-rate constant (kon) of 164000 M⁻¹ s⁻¹.

The molecule B14 displayed a Kd of 19.4 nM, a koff of 0.000672 s⁻¹ and a kon of 34700 M⁻¹ s⁻¹.

B15 had a Kd of 27.7 nM, a koff of 0.00209 s⁻¹ and a kon of 75300 M⁻¹ s⁻¹.

Regarding B16, the equilibrium dissociation constant (Kd) was found to be 9.67 nM, the dissociation rate constant (koff) was 0.000433 s⁻¹ and the association rate constant (kon) was 44700 M⁻¹ s⁻¹.

Another assay deals with T3, IL1RL2 (UniProt Q9HB29 20-335, limits assumed).
T3 construct: Soluble analyte of the SPR runs
T3 sequence (looked up): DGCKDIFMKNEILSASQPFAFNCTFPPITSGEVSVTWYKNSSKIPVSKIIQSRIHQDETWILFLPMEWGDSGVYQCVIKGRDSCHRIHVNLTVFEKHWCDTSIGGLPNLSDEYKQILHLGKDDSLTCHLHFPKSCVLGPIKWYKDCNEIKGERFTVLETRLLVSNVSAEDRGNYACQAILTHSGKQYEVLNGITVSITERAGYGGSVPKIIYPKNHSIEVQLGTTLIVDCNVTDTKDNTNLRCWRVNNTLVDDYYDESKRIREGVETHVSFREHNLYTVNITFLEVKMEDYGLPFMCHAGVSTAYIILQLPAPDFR
The assay is described as follows: SPR (Carterra LSA), antibody immobilised, 1:1 model.
Method: as §2
As for B1, the Kd is no more than 0.103 nM, the koff is no more than 1e-05 s⁻¹ and the kon came out at 97200 M⁻¹ s⁻¹.

In turn, B2 yielded a dissociation constant Kd of 2.14 nM, a dissociation rate constant (koff) of 0.000194 s⁻¹ and a kon of 90800 M⁻¹ s⁻¹.

B3 had a Kd of 8.48 nM, a koff of 0.000342 s⁻¹ and a kon of 40400 M⁻¹ s⁻¹.

B4 showed a Kd of 8.13 nM, a koff of 0.000124 s⁻¹ and an association rate constant (kon) of 15300 M⁻¹ s⁻¹.

In turn, B5 yielded a Kd of 10.5 nM, a koff of 0.000279 s⁻¹ and a kon of 26500 M⁻¹ s⁻¹.

Take B6: the Kd was 10.2 nM, the off-rate (koff) is 0.000784 s⁻¹ and the on-rate (kon) is 76900 M⁻¹ s⁻¹.

B7 came in with a Kd of 3.82 nM, a koff of 0.000318 s⁻¹ and a kon of 83300 M⁻¹ s⁻¹.

Another assay has as its target T4, TSLP on over-expressing Expi293 cells (UniProt Q969D9 29-159, limits assumed).
T4 construct: whole, on cells; Target of the flow cytometry assay; also called cytokine over-expressing Expi293 cells
The assay is described as follows: flow cytometry, 100 nM, TSLP over-expressing Expi293 over parent cells.
Method: as §1
For the molecule B17, the “100 nM (MFI Ratio)” value is 18.4 MFI ratio.

In the case of B18, the “100 nM (MFI Ratio)” value was 16.5 MFI ratio.

B8: the “100 nM (MFI Ratio)” value was found to be 0.7 MFI ratio.

With B9, the “100 nM (MFI Ratio)” value worked out at 21.2 MFI ratio.

On to B10, for which the “100 nM (MFI Ratio)” value worked out at 1.6 MFI ratio.

As to B19, the “100 nM (MFI Ratio)” value amounted to 0.7 MFI ratio.

As for B20, the “100 nM (MFI Ratio)” value is 1.5 MFI ratio.

As for B11, the “100 nM (MFI Ratio)” value worked out at 1.3 MFI ratio.

B21: the “100 nM (MFI Ratio)” value was 21 MFI ratio.

With B12, the “100 nM (MFI Ratio)” value came out at 5.1 MFI ratio.

Turning to B13, the “100 nM (MFI Ratio)” value stood at 12.3 MFI ratio.

B14: the “100 nM (MFI Ratio)” value was found to be 178 MFI ratio.

For B22, the “100 nM (MFI Ratio)” value stood at 0.6 MFI ratio.

In the case of B15, the “100 nM (MFI Ratio)” value was 2.5 MFI ratio.

Turning to B16, the “100 nM (MFI Ratio)” value stood at 157 MFI ratio.
